B1: T049M: single-substitution thermolysin variant (SEQ ID NO:3 numbering) (protein, listed as Geobacillus caldoproteolyticus)
chain: ITGTSTVGVGRGVLGDQKNINTTYSTYYYLQDNTRGNGIFTYDAKYRTMLPGSLWADADNQFFASYDAPAVDAHYYAGVTYDYYKNVHNRLSYDGNNAAIRSSVHYSQGYNNAFWNGSQMVYGDGDGQTFIPLSGGIDVVAHELTHAVTDYTAGLIYQNESGAINEAISDIFGTLVEFYANKNPDWEIGEDVYTPGISGDSLRSMSDPAKYGDPDHYSKRYTGTQDNGGVHINSGIINKAAYLISQGGTHYGVSVVGIGRDKLGKIFYRALTQYLTPTSNFSQLRAAAVQSATDLYGSTSQEVASVKQAFDAVGVK
B2: S065I: single-substitution thermolysin variant (SEQ ID NO:3 numbering) (protein, listed as Geobacillus caldoproteolyticus)
chain: ITGTSTVGVGRGVLGDQKNINTTYSTYYYLQDNTRGNGIFTYDAKYRTTLPGSLWADADNQFFAIYDAPAVDAHYYAGVTYDYYKNVHNRLSYDGNNAAIRSSVHYSQGYNNAFWNGSQMVYGDGDGQTFIPLSGGIDVVAHELTHAVTDYTAGLIYQNESGAINEAISDIFGTLVEFYANKNPDWEIGEDVYTPGISGDSLRSMSDPAKYGDPDHYSKRYTGTQDNGGVHINSGIINKAAYLISQGGTHYGVSVVGIGRDKLGKIFYRALTQYLTPTSNFSQLRAAAVQSATDLYGSTSQEVASVKQAFDAVGVK
B3: A056R: single-substitution thermolysin variant (SEQ ID NO:3 numbering) (protein, listed as Geobacillus caldoproteolyticus)
chain: ITGTSTVGVGRGVLGDQKNINTTYSTYYYLQDNTRGNGIFTYDAKYRTTLPGSLWRDADNQFFASYDAPAVDAHYYAGVTYDYYKNVHNRLSYDGNNAAIRSSVHYSQGYNNAFWNGSQMVYGDGDGQTFIPLSGGIDVVAHELTHAVTDYTAGLIYQNESGAINEAISDIFGTLVEFYANKNPDWEIGEDVYTPGISGDSLRSMSDPAKYGDPDHYSKRYTGTQDNGGVHINSGIINKAAYLISQGGTHYGVSVVGIGRDKLGKIFYRALTQYLTPTSNFSQLRAAAVQSATDLYGSTSQEVASVKQAFDAVGVK
B4: S065T: single-substitution thermolysin variant (SEQ ID NO:3 numbering) (protein, listed as Geobacillus caldoproteolyticus)
chain: ITGTSTVGVGRGVLGDQKNINTTYSTYYYLQDNTRGNGIFTYDAKYRTTLPGSLWADADNQFFATYDAPAVDAHYYAGVTYDYYKNVHNRLSYDGNNAAIRSSVHYSQGYNNAFWNGSQMVYGDGDGQTFIPLSGGIDVVAHELTHAVTDYTAGLIYQNESGAINEAISDIFGTLVEFYANKNPDWEIGEDVYTPGISGDSLRSMSDPAKYGDPDHYSKRYTGTQDNGGVHINSGIINKAAYLISQGGTHYGVSVVGIGRDKLGKIFYRALTQYLTPTSNFSQLRAAAVQSATDLYGSTSQEVASVKQAFDAVGVK
B5: G196H: single-substitution thermolysin variant (SEQ ID NO:3 numbering) (protein, listed as Geobacillus caldoproteolyticus)
chain: ITGTSTVGVGRGVLGDQKNINTTYSTYYYLQDNTRGNGIFTYDAKYRTTLPGSLWADADNQFFASYDAPAVDAHYYAGVTYDYYKNVHNRLSYDGNNAAIRSSVHYSQGYNNAFWNGSQMVYGDGDGQTFIPLSGGIDVVAHELTHAVTDYTAGLIYQNESGAINEAISDIFGTLVEFYANKNPDWEIGEDVYTPHISGDSLRSMSDPAKYGDPDHYSKRYTGTQDNGGVHINSGIINKAAYLISQGGTHYGVSVVGIGRDKLGKIFYRALTQYLTPTSNFSQLRAAAVQSATDLYGSTSQEVASVKQAFDAVGVK
B6: A058S: single-substitution thermolysin variant (SEQ ID NO:3 numbering) (protein, listed as Geobacillus caldoproteolyticus)
chain: ITGTSTVGVGRGVLGDQKNINTTYSTYYYLQDNTRGNGIFTYDAKYRTTLPGSLWADSDNQFFASYDAPAVDAHYYAGVTYDYYKNVHNRLSYDGNNAAIRSSVHYSQGYNNAFWNGSQMVYGDGDGQTFIPLSGGIDVVAHELTHAVTDYTAGLIYQNESGAINEAISDIFGTLVEFYANKNPDWEIGEDVYTPGISGDSLRSMSDPAKYGDPDHYSKRYTGTQDNGGVHINSGIINKAAYLISQGGTHYGVSVVGIGRDKLGKIFYRALTQYLTPTSNFSQLRAAAVQSATDLYGSTSQEVASVKQAFDAVGVK
B7: A056Y: single-substitution thermolysin variant (SEQ ID NO:3 numbering) (protein, listed as Geobacillus caldoproteolyticus)
chain: ITGTSTVGVGRGVLGDQKNINTTYSTYYYLQDNTRGNGIFTYDAKYRTTLPGSLWYDADNQFFASYDAPAVDAHYYAGVTYDYYKNVHNRLSYDGNNAAIRSSVHYSQGYNNAFWNGSQMVYGDGDGQTFIPLSGGIDVVAHELTHAVTDYTAGLIYQNESGAINEAISDIFGTLVEFYANKNPDWEIGEDVYTPGISGDSLRSMSDPAKYGDPDHYSKRYTGTQDNGGVHINSGIINKAAYLISQGGTHYGVSVVGIGRDKLGKIFYRALTQYLTPTSNFSQLRAAAVQSATDLYGSTSQEVASVKQAFDAVGVK
B8: G196D: single-substitution thermolysin variant (SEQ ID NO:3 numbering) (protein, listed as Geobacillus caldoproteolyticus)
chain: ITGTSTVGVGRGVLGDQKNINTTYSTYYYLQDNTRGNGIFTYDAKYRTTLPGSLWADADNQFFASYDAPAVDAHYYAGVTYDYYKNVHNRLSYDGNNAAIRSSVHYSQGYNNAFWNGSQMVYGDGDGQTFIPLSGGIDVVAHELTHAVTDYTAGLIYQNESGAINEAISDIFGTLVEFYANKNPDWEIGEDVYTPDISGDSLRSMSDPAKYGDPDHYSKRYTGTQDNGGVHINSGIINKAAYLISQGGTHYGVSVVGIGRDKLGKIFYRALTQYLTPTSNFSQLRAAAVQSATDLYGSTSQEVASVKQAFDAVGVK
B9: I156K: single-substitution thermolysin variant (SEQ ID NO:3 numbering) (protein, listed as Geobacillus caldoproteolyticus)
chain: ITGTSTVGVGRGVLGDQKNINTTYSTYYYLQDNTRGNGIFTYDAKYRTTLPGSLWADADNQFFASYDAPAVDAHYYAGVTYDYYKNVHNRLSYDGNNAAIRSSVHYSQGYNNAFWNGSQMVYGDGDGQTFIPLSGGIDVVAHELTHAVTDYTAGLKYQNESGAINEAISDIFGTLVEFYANKNPDWEIGEDVYTPGISGDSLRSMSDPAKYGDPDHYSKRYTGTQDNGGVHINSGIINKAAYLISQGGTHYGVSVVGIGRDKLGKIFYRALTQYLTPTSNFSQLRAAAVQSATDLYGSTSQEVASVKQAFDAVGVK
B10: I156H: single-substitution thermolysin variant (SEQ ID NO:3 numbering) (protein, listed as Geobacillus caldoproteolyticus)
chain: ITGTSTVGVGRGVLGDQKNINTTYSTYYYLQDNTRGNGIFTYDAKYRTTLPGSLWADADNQFFASYDAPAVDAHYYAGVTYDYYKNVHNRLSYDGNNAAIRSSVHYSQGYNNAFWNGSQMVYGDGDGQTFIPLSGGIDVVAHELTHAVTDYTAGLHYQNESGAINEAISDIFGTLVEFYANKNPDWEIGEDVYTPGISGDSLRSMSDPAKYGDPDHYSKRYTGTQDNGGVHINSGIINKAAYLISQGGTHYGVSVVGIGRDKLGKIFYRALTQYLTPTSNFSQLRAAAVQSATDLYGSTSQEVASVKQAFDAVGVK

Test: Stability assay in 25% TIDE 2X detergent with DTPA (residual Abz-AGLA-Nba protease activity)
Format: physicochemical
Conditions: 60 min at 32°C; variant residual AGLA activity divided by wild-type residual activity
Description: The stability of thermolysin and variants thereof was measured after incubation under defined conditions in the presence of 25% TIDE® 2× detergent. The initial and residual activity was determined.
MTPs were obtained from Costar (type 9017) and from Greiner (black plate, type 655076). Test Method Unstressed Conditions:
First, 20 μl thermolysin containing culture supernatant was diluted with 180 μl MES assay buffer. Then, 20 μl diluted supernatant was diluted further with 180 μl MES assay buffer. Subsequently 10 μl of this dilution was transferred into 190 μl AGLA-substrate solution in a pre-warmed plate (Greiner 655076) at 25° C. Any air bubbles present were blown away and the plate was measured according to the AGLA protease assay protocol described below.
First, 20 μl of culture supernatant was diluted with 180 μl 27.5% TIDE®+detergent solution and placed in the iEMS shaker. The plate covered with a plate seal was incubated for a total of 60 minutes at 32° C. at 900 rpm. In addition, 20 μl of culture supernatant was diluted with 180 μl 27.5% TIDE®−solution and placed in the iEMS shaker. This plate covered with a plate seal was incubated for a total of 180 minutes at 50° C. at 900 rpm.
Subsequently after the respective incubations, 20 μl of either of these solutions were diluted with 180 μl MES assay buffer and 10 μl of this dilution were diluted with 190 μl AGLA-substrate solution in a pre-warmed plate (Greiner 655076) at 25° C.
Fluorescence measurements were taken at excitation of 350 nm and emission of 420 nm. The spectrofluorometer software calculated the reaction rates (=slope) of the increase in fluorescence for each well to a linearly regressed line of (milli-) RFU/min. The ratio of the residual and initial AGLA activity was used to express the 25% TIDE® 2× stability as follows: Percentage of residual activity=[slope of stressed]*100/[slope of unstressed]
For each sample (thermolysin and variants thereof) the performance index was calculated by dividing the residual activity of the variant by the residual activity of thermolysin. The performance index compared the stability of the variant and the standard thermolysin enzyme (e.g., wild type or parental enzyme), determined under the same conditions.
In these experiments, the liberation of Abz-AG by protease cleavage of Abz-AGLA-Nba was monitored by fluorescence spectrometry (Ex. 350/Em. 420). The rate of appearance of Abz-AG was a measure of proteolytic activity.
The Abz-AGLA-Nba assay solution was prepared by adding 1 ml of the Abz-AGLA-Nba stock to 19 ml MES substrate buffer and mixed well for at least 2 minutes. Subsequently the thermolysin or variants thereof containing culture supernatants were diluted with MES assay buffer to a concentration of 1-6 μg protein per ml.
The assay was performed by adding 10 μl of diluted protease solution to each well, followed by the addition of 190 μl Abz-AGLA-Nba assay solution that was pre-equilibrated for at least 15 minutes at 25° C. The solutions were vigorously mixed, and the liberation of Abz-AG by protease cleavage of Abz-AGLA-Nba was monitored by fluorescence spectrometry at 25° C. in kinetic mode with excitation set at 350 nm and emission set at 420 nm. The rate of appearance of Abz-AG was a measure of proteolytic activity in the samples. The protease activity was expressed as RFU (relative fluorescence units·min^−1).
As described in Example 1, the stability of thermolysin variants was measured by determining the AGLA activity before and after incubation in the presence of TIDE® 2× heavy duty liquid (HDL) detergent at an elevated temperature. The tables contain the relative stability values compared to wild-type thermolysin, which is the quotient of the variant residual activity divided by the wild-type residual activity. A value greater than one indicates higher stability in the presence of detergent. […]

Compared with B1, B2 is higher in “PI (relative stability), 25% TIDE 2X with DTPA” value: 1.02 for the first, 1.05 for the second.

First: B3
Second: B4
The “PI (relative stability), 25% TIDE 2X with DTPA” value of the first is higher: 1.10 for the first, 1.04 for the second.

First: B5
Second: B6
The “PI (relative stability), 25% TIDE 2X with DTPA” value of the first is higher: 1.19 for the first, 1.02 for the second.

Compared with B7, B8 is lower in “PI (relative stability), 25% TIDE 2X with DTPA” value: 1.05 for the first, 1.02 for the second.

First: B9
Second: B10
The “PI (relative stability), 25% TIDE 2X with DTPA” value of the first is lower: 1.07 for the first, 1.21 for the second.

From patent US9976134B2, “Thermolysin variants” (Danisco US Inc., priority 2007, dated 2018)
